Source: the supplement of paper PMC9170038

System: K4 kissing-loop RNA reporter
Test: apparent KD of K4 kissing-loop reporter; higher = weaker reporter binding
Details: Eterna round: R107; input ligand: arginine 13.2 mM
Method: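 RNA-MaP round R107: designed RNA switches with theophylline, tryptophan, arginine or FMN aptamers are transcribed on-chip within common flanks. They are titrated with a labelled K4 kissing-loop RNA reporter in RNA-MaP buffer (100 mM Tris pH 7.5, 80 mM KCl, 4 mM MgCl2), without ligand or with the indicated ligand. Median apparent KD per design.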
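Further: bound reporter read as fluorescence of individual clusters on recovered sequencing chips by microscopy, with normalized cluster intensities fitted with a binding model.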

Sequence	apparent KD of K4 kissing-loop reporter
AUAGGAGUGAUGUUCCUUAGUUUCUCCGAUACCAGUAUGGAAACAUACCCUUGGCAGCGGUAAACCGCAGAUUAGGAAACUAGUC [Theophylline A K4 2]	332 nM
GCUUUCCGUGCGGCCGCCACUGAUCUAAGUGAUGUUUAGAUCGCAUUCGAACCGGUUACCCAGAGCAGGACCGGGCACCAGCGCU [theeternabot_exclusion_KL_Trp_B_35]	84.9 nM
UGACUGGACUGAAGGAGCGCCACGGUCAUAGACCGAAUAAGGAGUGAUGUUCCACAUAAAAGGCAGGUAGGUCGCAGUCUAGUCU [ArgBS 2 #SwitchBubble #StaticStem]	113 nM
UGGAGUUGACGAAAAGUCAACUCCUGAGAUACCAGUGACGAAAGUCACCCUUGGCAGCUCACUGCCAGUGAUGUUGGUAUAUAAA [#OpenEnded 4]	71.4 nM
GCUAUGGUAGGAAGGAGCGCGGACGAUAUUUAUCGAGUGAUGUUCGAUUCAUUAAUUUGAACGCAGGUAGGUCGCCUACUAUAGC [Arginine B K4 29]	148 nM
AAGGGCCGGGCGGCCGCCACUGGUCGUGUACACGUACUAACCAGUGAUGUUGGUAUAGUACGCGACAGGACCGGGCCCGGCCCAA [Exclusion - Tryptophan B (Freestyle 30)]	359 nM
AUUUUUUUGUCAGGAUAUUAGUGUUGGUUUGGUUUGUUAGUGAUGUUGAUAUUUGUUUUAUGUAUUUAAGAAGGGAUUUAGAUGU [zaahullin]	330 nM
CGGAUGUAGUGAUGUUAUAUUAGAUGUAGACGAGGACCGGUACGGCCGCCACUCGUGAUGGCUGCUAGCACGUUUCGAGGUUUGC [ExTryptoA.Cp]	624 nM
UGAUACCAGACGGCCGCCACUGGGACCGGGAGUGAUGUUCCGAAAAUUAAAUGCUCGGCCGCCACUAGGACCGGGUCUGGUAUCU [TrypBX 29 #DoubleAptamer #SwitchBubble]	407 nM
UGUGUUGUAUGACGGUUUGUCACUUAGUAUUAGGAUAUAUAAACAAAUAGAAGGGAUGGCGGAGUGAUGUUCCGCCGGCCGCCAU [FMN A Exl V10]	92.9 nM
AGGGUAAGGCGUUAACAUGACACCUGGGAAGGAGCGCGGUACACCGCAGGUAGGUCGCCCAGUGAUGUUGGGUGAUUGUAUGAGU [KL-XArg-A24]	123 nM
GAUUGUGAUGGAAACAUCGCAAUCUCUGAAGGAGCGCGUGAAAACGCAGGUAGGUCGCAGGACGACAAAGACAGUGAUGUUGUCG [Ex Arginine A K4 2]	424 nM
UCGGACCCUGGAGGAUAUGAGUCGAGUGAUGUUCGGCGGUCCAUGCUGGUGCGGCGUUAUGCCCUUUUAGAAGGCCAGGGUCCGA [#2 Exclusion - FMN B Attempt #12 (HarryS)]	147 nM
CCAUCGCUAUUCGAUACCAGUCAGGAGGUCUAUGACCUCCUAAUGGAGUGAUGUUCCUUAGACCCUUGGCAGCGAAUAGUGAUGG [#01 K4 Theophylline B Same State]	480 nM
CUCUGCUUCCCAGGGCUAGUGAUGUUAGCCCGAGGACCGGUACGGCCGCCACUCGAGUUAAGCAUCGACCGUGAAUGUUCGAAGC [theeternabot_exclusion_KL_Trp_A_48]	143 nM
UGAUAGGACAGAAGGAGCGGAAUGCUGUCCAAAAGGACAGCAAAUAUAAAAGGAGUGAUGUUCCAGGUAGGUCGCUGUCCUAUCU [ArgBX 20 #SwitchBubble #StaticStem]	206 nM
GGUAUCUAUACAGAUACCAGUCGUAUAGGUCGAUUACAGGUUAGUGAUGUUAACCUGUACGACCCUUGGCAGCUGUAUAAUAAUA [Theo B Ex t2]	60.3 nM
AGGGUAAGGCGUUAACAUGACACCUGGGAAGGAGCGCGGUACACCGCAGGUAGGUCGCCCAGUGAUGUUGGGUGUAUGUAUGAGU [KL-XArg-A21]	120 nM
GUAUGUGGAAACACGUACUUAUAUCCUAGGCAGGAUAUGCGGAAACGCAGAAGGGCCACCGGCGAGAAAAUCCAGUGAUGUUGGA [Ex FMN A 7]	248 nM
CGGUUUGGUUGAGAGGUUGGGCCGAAUGAUACCAGUAUAUAAGAAUACCCUUGGCAGCAUAAGAAAGAUAUAGUGAUGUUGUAUA [SSTheophA.J]	537 nM
CGCAGUGAUGUUGCGAAUAUAAUGCAUUCAGAGGAUAUUCGUUUGGGAAGAAGGCUGAAUCGUUCUUCGAGUGAUGUUCGAGGAA [Same State FMN A GF 17]	133 nM
AGGAGCGUGGGAUGCAAAUCGCACGCUCCUCGAGGACCGGUACGGCCGCCACUCGCUCGCGCCGAGUGAUGUUCGGCCGGCGAAC [#2 Same State - Tryptophan A Attempt #14 (HarryS)]	232 nM
AUAUUGGUUGAGAGUGAUGUUCCUUGUGUUCGAGGACCGGUACGGCCGCCACUCGGGUAGAAAAUAAAAGAUGUGUUUGAUUUUU [BDazzled - #13 SS Tryptophan A]	101 nM
GUAUCGCUAGGAGGAUAUUCCAUUUUACAUAUAAAUGGAUAUGCGGAGUGAUGUUCCGAUUUACGGGAAGAAGGCCUAGUGAUAC [FMN B 20]	220 nM
UAUUGGAGUGAUGUUCCAUUAACGAUCCUACGAGGACCGGUACGGCCGCCACUCGAAAUGCAGUGAUGUUGCAGCCAGCCGUAAA [Exclusion Trptophan A GF 7]	167 nM
AAAUGUAUCUGAAGGAGCGUGAAAUAAUAUUAGACAUAAUAGCCCAGUGAUGUUGGGUUAUCACAGGUAGGUCGCAGAUGUAUAA [Same State Arginie B GF 26]	108 nM
